Laboratory results: US20090023158A1

Columns and labels:
[1] = tested on: C99GVP-G25S
[2] = tested on: C99GVP-K28S
[3] = tested on: C99GVP-SLSS
[4] = tested on: C99GVP-SREBP1-gsnk
[5] = tested on: C99GVP-N27S
[6] = tested on: C99GVP-S26L

gamma secretase (endogenous, HEK cells)
AICD production and signaling activity [1]: little difference in their respective AICD production (FIG. 9A, lower panels) and signaling activity (FIG. 9D) | secreted Aβ [1]: the other two mutations, G25S and N27S, showed no obvious effect on secreted Aβ | AICD production and signaling activity [2]: little difference in their respective AICD production (FIG. 9A, lower panels) and signaling activity (FIG. 9D) | Aβ40 (secreted, ELISA) [2]: the K28S substitution resulted in an even more substantial (˜90%) decrease in both measurements | total Aβ (secreted) [2]: the K28S substitution resulted in an even more substantial (˜90%) decrease in both measurements | secreted Aβ [3]: This mutation led to a marked reduction (˜97%) in secreted Aβ | Aβ secretion [4]: also maintained normal Aβ secretion | AICD production and signaling activity [5]: little difference in their respective AICD production (FIG. 9A, lower panels) and signaling activity (FIG. 9D) | secreted Aβ [5]: the other two mutations, G25S and N27S, showed no obvious effect on secreted Aβ | AICD production and signaling activity [6]: little difference in their respective AICD production (FIG. 9A, lower panels) and signaling activity (FIG. 9D) | Aβ40 (secreted, ELISA) [6]: a 52.7±2.3% drop of Aβ40 | total Aβ (secreted) [6]: The S26L mutation led to a 65.7±8.5% reduction in total Aβ
